US20180371033A1, “THERAPEUTIC PEPTIDES AND METHODS OF USE THEREOF” (priority 2015, published 2018)

Columns and labels:
[1] = for Blood (densitometric signal in the heart blood) / Brain (percentage of signal in that tissue compared to the signal detected in the heart blood): 14C-radiolabeled peptide, tail vein injection, kidneys ligated, target three hours circulation
Procedure: This example illustrates the dosing of peptide. […] The experiment was done in duplicates.
A target dosage of 20 nmol of each peptide was administered to separate flank sarcoma A204 tumor bearing Female Harlan athymic nude mice while anesthetized. The dosage was adjusted for whole body autoradiography. […] Some animals died after receiving the peptides, possibly due to complications of the anesthesia and surgical procedure used to ligate the kidneys of each mice, or due to toxic effects of some peptides. The circulation time of each peptide varied from animal-to-animal. […] Inulin was used as a negative control, as this polysaccharide is known to not cross the BBB.
At the end of the dosing period, mice were frozen in a hexane/dry ice bath and then frozen in a block of carboxymethylcellulose. Thin, frozen sections of whole animal sagittal slices that include the brain, tumor, liver, kidney, lung, heart, spleen, pancreas, muscle, adipose, gall bladder, upper gastrointestinal track, lower gastrointestinal track, bone, bone marrow, reproductive track, eye, cartilage, stomach, skin, spinal cord, bladder, salivary gland, and other types of tissues were obtained with a microtome, allowed to dessicate in a freezer, and exposed to phosphoimager plates for about ten days.
These plates were developed, and the signal (densitometry) from each organ was normalized to the signal found in the heart blood of each animal. A signal in tissue darker than the signal expected from blood in that tissue indicates accumulation in a region, tissue, structure or cell. Fluoxetine can cross the blood brain barrier, and is a positive control. Inulin cannot cross the blood brain barrier, and is a negative control. FIG. 2 illustrates ^14C signal in the brain and other tissues for the fluoxetine (top) and inulin (bottom) control groups.
Furthermore, the brain contains approximately 3% blood. Thus when comparing the radioactivity signal per area in blood to that in the brain, a signal in the brain that is much higher than 3% of the signal in blood can be attributed to accumulation of the material in the brain through the BBB. A ratio of at least 10% diffuse signal in brain versus blood was chosen as a reference level for high penetration. The densitometric signal can also indicate high concentration within specification locations in the brain, which can indicate crossing the BBB and/or the blood CSF barrier. […] Numbers for blood indicate the densitometric signal in the heart blood. Numbers for the brain indicate the percentage of signal in that tissue compared to the signal detected in the heart blood.

[2] = Brain section autoradiography: peptide homing to ventricles and cerebral spinal fluid; assay type: in vivo, Female Harlan athymic nude mice; details: 14C signal in sagittal/coronal brain sections, 3 hours after administration
Source text: The experiment was done in duplicates.

[3] = assay type: in vivo, mice; details: 14C whole body autoradiography
Source text: This example describes biodistribution of peptides.
ND indicates the peptide was not detected in that tissue.

Row | Substance | Blood (densitometric signal in the heart blood) [1] | Brain (percentage of signal in that tissue compared to the signal detected in the heart blood) [1] | penetration of the blood brain barrier in comparison with the negative controls ([1]; reference level for high penetration: at least 10% diffuse signal in brain versus blood) | localization of the peptide to specific structures in the brain [2] | Adipose (percentage of signal compared to blood in the heart) [3] | Gall bladder (percentage of signal compared to blood in the heart) [3] | Liver (percentage of signal compared to heart blood) [3] | Lower GI (percentage of signal compared to blood in the heart) [3] | Lung (percentage of signal compared to heart blood) [3] | Muscle (percentage of signal compared to blood in the heart) [3] | Pancreas (percentage of signal compared to blood in the heart) [3] | Reproductive (tract; percentage of signal compared to heart blood) [3] | Salivary gland (percentage of signal compared to heart blood) [3] | Spleen (percentage of signal compared to blood in the heart) [3] | Upper GI (percentage of signal compared to blood in the heart) [3]
1 | GSGVPINVKCRGSRDCLDPCKKAGMRFGKCINSKCHCTP [SEQ ID NO: 34] | 6552245640 | 9.30% | highly penetrate the blood brain barrier | specific structures in the brain, such as ventricles and CSF | 11.69% | 35.52% | 82.37% | 20.73% | 118.19% | 34.13% | 30.35% | 229.69% | 57.57% | 54.28% | 216.32%
2 | Inulin [reference compound] | 900918901.9 | 3.00% |  |  | 5.98% | 18.65% | 126.76% | 10.92% | 242.98% | 19.80% |  | 129.37% | 27.58% |  | 382.27%
